The target of data set [1] is T1, human N-cadherin naturally expressed on DX3 melanoma cells (human, UniProt P19022 160-906).
T1 construct: also called DX3 Cells; N-cadherin+ve DX3 melanoma cells
T1 sequence: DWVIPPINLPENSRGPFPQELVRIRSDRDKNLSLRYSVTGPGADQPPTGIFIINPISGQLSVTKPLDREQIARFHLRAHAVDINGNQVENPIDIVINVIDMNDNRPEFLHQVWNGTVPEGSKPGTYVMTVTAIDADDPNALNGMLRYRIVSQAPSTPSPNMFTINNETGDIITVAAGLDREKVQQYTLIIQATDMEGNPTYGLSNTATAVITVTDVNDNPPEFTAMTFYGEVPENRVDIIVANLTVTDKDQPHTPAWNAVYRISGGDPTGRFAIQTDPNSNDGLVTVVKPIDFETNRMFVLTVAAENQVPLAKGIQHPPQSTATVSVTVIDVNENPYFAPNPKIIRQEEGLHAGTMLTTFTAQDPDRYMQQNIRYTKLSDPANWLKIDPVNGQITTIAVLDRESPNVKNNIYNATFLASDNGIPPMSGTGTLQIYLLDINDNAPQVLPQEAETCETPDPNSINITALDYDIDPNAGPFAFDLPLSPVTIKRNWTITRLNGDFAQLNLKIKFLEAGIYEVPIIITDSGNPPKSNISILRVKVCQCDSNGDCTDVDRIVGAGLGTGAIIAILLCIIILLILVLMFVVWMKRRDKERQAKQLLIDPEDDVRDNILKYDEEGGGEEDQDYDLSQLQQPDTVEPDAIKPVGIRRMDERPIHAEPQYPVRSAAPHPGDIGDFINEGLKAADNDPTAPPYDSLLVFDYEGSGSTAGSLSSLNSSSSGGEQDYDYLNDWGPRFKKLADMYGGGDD
Description: adhesion of DX3 cells to coated monomeric N-cadherin-Fc, oxidising buffer. Here is the method: Monomeric or dimeric N-cadherin-Fc fusion protein in Cos cell supernatants was added as described for the ELISA assay. DX3 Cells, a human melanoma cell line which expresses N-cadherin, were dissociated with Cell Dissociation Solution (Sigma, code C5789), resuspended in HBSS with 2% FCS and assessed for adhesion to wild type or mutant N-cadherin-Fc as previously described (Corps et al., 2001). Microscopic examination established that the cells were present as a single cell suspension as they settled onto the plate. For assays conducted in reducing conditions, 10 mM DTT was present during the adhesion and washing steps. Determinations were conducted in triplicate and results are presented as mean +/−sem.

Data set [2] concerns the molecule itself. Description: disulphide-bonded cis-dimers in the coating layer; non-reducing SDS-PAGE and immunoblot. Here is the method: (§1) Monomeric N-cadherin-Fc (1 μg/ml) bearing the three alternative cysteine point mutations, D1C, R25C or D27C, was immobilised on 96-well plates with goat antihuman IgG Fe as previously described for E-cadherin-Fc (Corps et al., 2001). Unbound cadherin was removed by washing with HBSS, 0.1% BSA, followed by HBSS alone. The plates were not blocked with additional protein. K562 transfectants expressing N-cadherin bearing complementary or non-complementary point mutations (6×10^4 Cells in 100 μl HBSS containing 10 mM DTT), in single cell suspension, were added to the coated wells which contained 100 μl HBSS. The final concentration of DTT was therefore 5 mM DTT during the adhesion stage. The cells were allowed to settle for 10 min at room temperature before incubation at 37° C. for 30 minutes to complete adhesion. […] Adherent cells from a pool of 4 wells for each experimental condition were then solubilised in sample buffer for SDS-PAGE and analysed on NuPAGE Novex gradient gels, 3-8% or 4-12%, (Invitrogen), under nonreducing or reducing conditions. Cellular cadherin was detected by immunoblotting using rabbit pan anti-cadherin antiserum specific for the cytoplasmic domain. Alternatively, N-cadherin-Fc fusion protein was detected with rabbit anti-human IgG, Fc-specific (Pierce, code 31142). […]
A general note: In western blotting, separated proteins are transferred to a membrane and probed.

For data set [3], the target named is T2, full length chicken N-cadherin with the mutation D1C expressed on K562 cells (chicken, UniProt P10288 165-912, D1C).
T2 construct: whole, on cells; also called D1C cells; K562 D1C
T2 sequence (looked up): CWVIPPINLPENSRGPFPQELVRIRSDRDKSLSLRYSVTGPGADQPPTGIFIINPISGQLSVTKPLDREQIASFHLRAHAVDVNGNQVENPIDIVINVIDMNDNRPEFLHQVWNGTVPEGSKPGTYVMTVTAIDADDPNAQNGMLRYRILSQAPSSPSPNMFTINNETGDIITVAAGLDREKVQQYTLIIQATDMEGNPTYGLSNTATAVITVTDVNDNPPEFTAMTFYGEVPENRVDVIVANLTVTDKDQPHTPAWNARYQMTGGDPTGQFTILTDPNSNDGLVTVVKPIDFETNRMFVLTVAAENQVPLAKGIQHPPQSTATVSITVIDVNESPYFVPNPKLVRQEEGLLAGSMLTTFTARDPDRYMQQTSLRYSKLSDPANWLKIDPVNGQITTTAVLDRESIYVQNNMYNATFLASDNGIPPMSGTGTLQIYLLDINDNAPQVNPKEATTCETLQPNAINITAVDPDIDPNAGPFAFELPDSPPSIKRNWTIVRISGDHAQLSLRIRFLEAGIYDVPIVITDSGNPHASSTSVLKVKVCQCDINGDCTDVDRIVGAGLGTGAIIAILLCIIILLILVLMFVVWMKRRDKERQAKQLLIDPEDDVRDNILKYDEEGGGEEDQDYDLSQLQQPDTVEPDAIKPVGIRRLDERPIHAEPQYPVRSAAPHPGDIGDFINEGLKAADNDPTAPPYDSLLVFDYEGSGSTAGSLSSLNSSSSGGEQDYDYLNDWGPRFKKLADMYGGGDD
The data set can be described thus: Protein A Dynabeads coated with dimeric D27C N-cadherin-Fc mixed with K562 transfectants. Here is the method: (§2) In an alternative protocol, Dynabeads (Dynal) coupled to Protein A were coated with dimeric N-cadherin-Fc (1 μg/ml), bearing the mutation D27C, for 1 hour at room temperature in the presence of 0.1% Tween 20 and 4 mM EGTA (to prevent aggregation). The beads were then washed with HBSS. K562 transfectants expressing cell surface Ncadherin with the mutations D1C, R25C or D27C, were treated with 10 mM DTT for 15 minutes at 37° C., then washed and resuspended in HBSS without DTT. Cells ([…]) were mixed with 3 μl of beads coated with mutant N-cadherin-Fc in a final volume of 100 μl HBSS. Cells and beads were incubated together at room temperature for 2 hours with slow rotation to allow adhesion. Approximately five beads became attached to each cell and there was some clumping of attached and unattached beads. Iodoacetamide, 2 μl of 1.0M solution, was then added to alkylate free sulphydryl groups. The samples were then spun down at 1500 g and the cells were lysed in HBSS, 0.075% SDS, 1% NP40, 0.2 mM AEBSF, for 4 minutes on ice. Beads were then isolated with a magnet and washed twice with lysis buffer. Disulphide-bonded complexes between cellular cadherin and the Fc-fusion protein were analysed by SDS-PAGE and immunoblotting for cadherin cytoplasmic domain as described above. To ensure equal loading, membranes were stripped and re-assayed with anti-Human Fc.

Data set [4] concerns the target T3, full length chicken N-cadherin with the mutation R25C expressed on K562 cells (chicken, UniProt P10288 165-912, R25C).
T3 construct: whole, on cells; also called K562 R25C
T3 sequence (looked up): T2 sequence (looked up) with C1D, R25C
The description is as above. Here is the method: as §2

Data set [5] has as its target T4, full length chicken N-cadherin with the mutation D27C expressed on K562 cells (chicken, UniProt P10288 165-912, D27C).
T4 construct: whole, on cells; also called K562 D27C
T4 sequence (looked up): T2 sequence (looked up) with C1D, D27C
The data set is described as above. As to the method:
as §2

In data set [6] the target is T2, full length chicken N-cadherin with the …. The data set can be described thus: cell adhesion to coated monomeric N-cadherin-Fc, then non-reducing SDS-PAGE and immunoblot. Here is the method:
as §1

Positions count from the first letter of the chain named. Names and notes keep the numbering of the source.

This note sets out measurements from patent publication US20080274950A1 (BABRAHAM INSTITUTE, published 2008).

B1: monomeric chicken N-cadherin-Fc with the mutation D1C (Fc fusion, UniProt P10288 165-728, looked up)
chain: CWVIPPINLPENSRGPFPQELVRIRSDRDKSLSLRYSVTGPGADQPPTGIFIINPISGQLSVTKPLDREQIASFHLRAHAVDVNGNQVENPIDIVINVIDMNDNRPEFLHQVWNGTVPEGSKPGTYVMTVTAIDADDPNAQNGMLRYRILSQAPSSPSPNMFTINNETGDIITVAAGLDREKVQQYTLIIQATDMEGNPTYGLSNTATAVITVTDVNDNPPEFTAMTFYGEVPENRVDVIVANLTVTDKDQPHTPAWNARYQMTGGDPTGQFTILTDPNSNDGLVTVVKPIDFETNRMFVLTVAAENQVPLAKGIQHPPQSTATVSITVIDVNESPYFVPNPKLVRQEEGLLAGSMLTTFTARDPDRYMQQTSLRYSKLSDPANWLKIDPVNGQITTTAVLDRESIYVQNNMYNATFLASDNGIPPMSGTGTLQIYLLDINDNAPQVNPKEATTCETLQPNAINITAVDPDIDPNAGPFAFELPDSPPSIKRNWTIVRISGDHAQLSLRIRFLEAGIYDVPIVITDSGNPHASSTSVLKVKVCQCDINGDCTDVDRIVGAGLGT
notes: extracellular domain; not shown: hinge region, CH2 and CH3 domains of human IgG1 heavy chain (vector pIgSig)
On to B1, for which the binding result in data set [1] and in data set [2] was “binds” each time.

B2: chicken N-cadherin-Fc fusion protein with the mutation D27C, dimeric (conventional fusion protein dimerised via Fc), coated to Protein A magnetic beads (Fc fusion, UniProt P10288 165-728, looked up)
chain: B1 chain with C1D, D27C
notes: extracellular domain; also called dimeric N-cadherin-Fc D27C; D27C beads; not shown: hinge region, CH2 and CH3 domains of human IgG1 heavy chain (vector pIgSig)
For the molecule B2, the “beads attached to each cell” value in data set [3], in data set [4] and in data set [5] was about 5 beads per cell throughout.

B3: monomeric chicken N-cadherin-Fc with the mutation R25C (Fc fusion, UniProt P10288 165-728, looked up)
chain: B1 chain with C1D, R25C
notes: as for B1
For B3, the binding result in data set [1] and in data set [6] was “binds” in each case.
